Assay results reported in patent publication US8357523B2, “Beta-glucosidase variant enzymes and related polynucleotides” (Codexis, Inc., priority 2009, dated 2013).

Experiments:
Assay type in all cases: biochemical
[1] = Activity profile at different temperatures and pH using cellobiose (10 g/L) as substrate
Method: β-glucosidase activity was also determined using a cellobiose assay, which used cellobiose as substrate. In a total volume of 100 μL, 25 μL clear media supernatant containing CelA enzyme was added to 10 g/L cellobiose (Fluka Cat. No. 22150, Sigma-Aldrich, Inc., St. Louis, Mo.) in 100 mM sodium phosphate buffer (pH 6-7) or sodium acetate buffer (pH 5-5.5). The reaction was incubated at 45-70° C. for an appropriate time (25 minutes to overnight depending on the enzyme concentration) while shaking. Glucose production was determined using an enzymatic glucose assay (K-GLUC, Megazyme, Ireland). 10 μl of each reaction was added to 190 μl GOPOD reagent (supplied as part of the K-GLUC assay kit). The reaction was incubated at 45° C. for 20 minutes and the absorbance of the solution was measured at 510 nm. The GOPOD reagent contains 50 mM Potassium phosphate buffer pH7.4, 0.011M p-hydroxybenzoic acid, 0.008% w/v sodium azide, glucose oxidase (>12,000 U/L), peroxidase (>650 U/L) and 80 mg/L 4-aminoantipyrine. The glucose oxidase enzyme in the reagent reacts with any glucose present in the sample and produces hydrogen peroxide which then reacts with the 4-aminoantipyrine to produce a quinoneimine dye in quantities proportionate with the amount of glucose present and can be measured spectrophotometrically at 510 nm. Detectable β-glucosidase activity was observed under high throughput screening conditions (i.e., pH 7, 50° C.).
The native CelA activity profile was investigated at different temperatures (40-55° C.) and pH (5.0-8.0) using cellobiose (10 g/L) as a substrate. The experimental and analytical procedures are described in Example 5.
The activity profiles for Variant Nos. 264, 366, 391, 463, and 529 were determined at different temperatures and pH using cellobiose (10 g/L) as a substrate. The experimental and analytical procedures are described in Example 5, incubating the variant with cellobiose at temperatures in the range of 45-80. The results are depicted in FIGS. 7-11. […] The temperature and pH profile for this variant is depicted in FIG. 7. […] The temperature and pH profile for this variant is depicted in FIG. 8. […] The temperature and pH profile for this variant is depicted in FIG. 9. […] (with the pH 6 optimum determined by extrapolation). The temperature and pH profile for this variant is depicted in FIG. 10. […] The temperature and pH profile for this variant is depicted in FIG. 11.

[2] = High throughput cellobiose assay: fold improvement in cellobiase activity of CelA variants over a control enzyme (Tables 2A-2D, 3, 5, 6, 7); details: for activity (e.g., thermoactivity) over the wildtype A. irakense β-glucosidase, demonstrated indirectly: shown by improvement over a chain of controls, of which Variant No. 5 was directly compared to the wildtype
[3] = Enzyme stability: residual activity on pNPG after pre-incubation at high temperature and low pH; details: residual activity on pNPG at pH 7, 30° C.
Method: Residual activity is determined by exposing the enzyme to stress conditions of elevated temperature for a period of time and then determining the β-glucosidase activity. The β-glucosidase activity of the enzyme exposed to stress conditions (“a”) is compared to that of a control in which the enzyme is not exposed to the stress conditions (“b”), and residual activity is equal to the ratio a/b. Exemplary conditions for determining thermostability are provided in Examples 9 and 13. In one embodiment the enzymes are exposed to stress conditions of 50° C. at pH 5.5 or 55° C. at pH 5.0 or 55° C. at pH 5.5, or 65° C. at pH 5.0 for about 1 hour, and assayed at 30° C., pH 7, for about 0.1 hour.
A colorimetric pNPG (p-nitrophenyl-(β-D-glucopyranoside)-based assay was used for measuring β-glucosidase activity. In a total volume of 100 μL, 20 μL clear media supernatant containing β-glucosidase enzyme was added to 4 mM pNPG (Sigma-Aldrich, Inc. St. Louis, Mo.) solution in 50 mM sodium phosphate buffer at pH6.5. The reactions were incubated at pH 6.5, 45° C. for 1 hour. The reaction mixture was quenched with 100 μL of 1M sodium carbonate pH 11 solution. The absorbance of the solution was measured at 405 nm to determine the conversion of pNPG to p-nitrophenol. The release of p-nitrophenol (ε=17,700 M−1 cm−1) was measured at 405 nm to calculate β-glucosidase activity. Detectable β-glucosidase activity was observed under high throughput screening conditions (pH 7, 50° C.).
Four CelA variants and wildtype CelA were characterized to determine their stabilities at high temperature (55° C.) and low pH (pH5.5) using the method of Example 5A. The samples containing various CelA variant enzymes were pre-incubated at pH 5.5, 55° C. for 0-6 hrs. The residual enzyme activity after the thermal challenge was measured using pNPG as substrate at pH 7, 30° C. for 1 hr. […] The mutations listed in the table are indicated relative to SEQ ID NO: 4, the wildtype CelA. These sequences included residues GTS prior to the N-terminus of SEQ ID NO: 4 (prepared as described in Example 1). […]

| Molecule | pH of optimum activity [1] [pH] | temperature of optimum activity [1] [°C] | activity (e.g., thermoactivity) over the wildtype A. irakense β-glucosidase, demonstrated indirectly [2] | pH of optimum activity (determined by extrapolation) ([1]; pH optimum determined by extrapolation) [pH] | % residual activity after 10 mins @ pH 5.5, 55° C. ([3]; pre-incubation 10 mins at pH 5.5, 55° C., 1 hr) [%] | % residual activity after 1 hour @ pH 5.5, 55° C. ([3]; pre-incubation 1 hour at pH 5.5, 55° C.) [%] | % residual activity after 6 hours @ pH 5.5, 55° C. ([3]; pre-incubation 6 hours at pH 5.5, 55° C., 1 hr) [%] | activity (e.g., thermoactivity) over the wildtype A. irakense β-glucosidase ([2]; assay of Example 7) |
| --- | --- | --- | --- | --- | --- | --- | --- | --- |
| Variant No. 366 (protein, catalytic domain; signal sequence F-10T) SAAITQEGAAPAAMLHPEKWPRPATQRLIDPAVEKRVDALLKQLSVEEKVGQVIQGDIGTITPEDLRKYPLGSILAGGDSGPNGDDRAPPKEWLDLADAFYRVSLEKRPGHTPIPVLFGIDAVHGHNNIGSATIFPHNIALGMTRDPELLRRIGEVTAEEMAATGIDWTFAPALSVVRDDRWGRTYEGFSEDPEIVASYSAAIVEGFQGKYGSKDFMAPGRAVACAKHFLADGGTDQGRDQGDARISEDELIRIHNAGYPPAIDAGVLTVMASFSSWQGIKHHGHKQLLTDVLKGQMGFNGFIVGDWNAHDQVPGCTKFNCPTSLIAGLDMYMAADSWKQLYENTLAQVKDGTIPMARLDDAVRRILRVKVLAGLFEKPAPKDRPGLPGLETLGSPEHRAVGREAVRKSLVLLKNDKGTLPLSPKARVLVAGDGADNIGKQSGGWTISWQGTGNRNDEFPGATSILGGIRDAVADAGGSVEFDVAGQYKTKPDVAIVVFGEEPYAEFRGDVETLEYQPDQKQDLTLLKKLKDQGIPVVAVFLSGRPMWVNPELNASDAFVAAWLPGTEGGGVADVLFTDKAGKVQHDFAGKLSYSWPRTAAQTTVNRGDADYNPLFAYGYGLTYKDKSKVGTLPEESGVPAEARQN | 6 | 66 | improved activity | – | – | – | – | – |
| Variant No. 391 (protein, catalytic domain) SARITQEGAAPAAMLHPEKWPRPATQRLIDPAVEKRVDALLKQLSVEEKVGQVIQGDIGTITPEDLRKYPLGAILAGGDSGPNGDDRAPPKEWLDLADAFYRVSLEKRPGHTPIPVLFGIDAVHGHNNIGSATIFPHNIALGMTRDPELLRRIGEVTAEEMAATGIDWTFAPALSVPRDDRWGRTYEGFSEDPEIVASYSAAYVEGFQGKYGSKDFMAPGRAVACAKHFLADGGTDQGRDQGDARISEDELIRIHNAGYPPAIDAGVLTVMASFSSWQGIKHHGHKQLLTDVLKGQMGFNGFIVGDWNAHDQVPGCTKFNCPTSLIAGLDMYMAADSWKQLYENTLAQVKDGTIPMARLDDAVRRILRVKVLAGLFEKPAPKDRPGLPGLETLGSPEHRAVGREAVRKSLVLLKNDKGTLPLSPKARVLVAGDGADNIGKQSGGWTISWQGTGNRNDEFPGATSILGGIRDAVADAGGSVEFDVAGQYKTKPDVAIVVFGEEPYAEFRGDVETLEYQPDQKQDLTLLKKLKDQGIPVVAVFLSGRPMWVNPELNASDAFVAAWLPGTEGGGVADVLFTDKAGKVQHDFAGKLSYSWPRTAAQTTVNRGDADYNPLFAYGYGLTYKDKSKVGTLPEESGVPAEARQN | 5.5 | 69 | improved activity | – | – | – | – | – |
| Variant No. 463 (protein, catalytic domain) SARITQEGAAPAAMLHPEKWPRPATQRLIDPAVEKRVDALLKQLSVEEKVGQVIQGDIGTITPEDLRKYPLGAILAGGDSGPNGDDRAPPKEWLDLADAFYRVSLEKRPGHTPIPVLFGIDAVHGHNNIGSATIFPHNIALGMTRDPELLRRIGEVTAEEMAATGIDWNFAPALSVPRDDRWGRTYEGFSEDPEIVASYSAPYVEGFQGKYGSKDFMAPGRAVACAKHFLADGGTDQGRDQGDARISEDELIRIHNAGYPPAIDAGVLTVMLSFSSWQGIKHHGHKRLLTDVLKGQMGFNGFIVGDWNAHGQVPGCTKFNCPTSLIAGLDMYMAADSWKQLYENTLAQVKDGTIPMARLDDAVRRILRVKVLAGLFEKPAPKDRPGLPGLETLGSPEHRAVGREAVRKSLVLLKNDKGTLPLSPKARVLVAGDGADNIGKQSGGWTISWQGTGNRNDEFPGATSILGGIRDAVADAGGSVEFDVAGQYKTKPDVAIVVFGEEPYAEFRGDVGTLEYQPDQKQDLTLLKKLKDQGIPVVAVFLSGRPMWVNPELNASDAFVAAWLPGTEGGGVADVLFTDKAGKVQHDFAGKLSYSWPRTAAQTTVNRGDADYNPLFAYGYGLTYKDKSKVGTLPEESGVPAEARQN | – | 69 | improved activity | 6 | – | – | – | – |
| Variant No. 94 (protein) STAIAQEGAAPAAILHPEKWPRPATQRLIDPAVEKRVDALLKQLSVEEKVGQVIQGDIGTITPEDLRKYPLGSILAGGDSGPNGDDRAPPKEWLDLADAFYRVSLEKRPGHTPIPVLFGIDAVHGHGNIGSATIFPHNIALGMTRDPELLRRIGEVTAEEMAATGIDWTFAPALSVVRDDRWGRTYEGFSEDPEIVASYSAAIVEGVQGKYGSKDFMAPGRIVASAKHFLADGGTDQGRDQGDARISEDELIRIHNAGYPPAIDAGVLTVMASFSSWQGIKHHGHKQLLTDVLKGQMGFNGFIVGDWNAHDQVPGCTKFNCPTSLIAGLDMYMAADSWKQLYENTLAQVKDGTIPMARLDDAVRRILRVKVLAGLFEKPAPKDRPGLPGLETLGSPEHRAVGREAVRKSLVLLKNDKGTLPLSPKARVLVAGDGADNIGKQSGGWTISWQGTGNRNDEFPGATSILGGIRDAVADAGGSVEFDVAGQYKTKPDVAIVVFGEEPYAEFQGDVETLEYQPDQKQDLALLKKLKDQGIPVVAVFLSGRPMWVNPELNASDAFVAAWLPGTEGGGVADVLFTDKAGKVQHDFAGKLSYSWPRTAAQTTVNRGDADYNPLFAYGYGLTYKDKSKVGTLPEESGVPAEARQNAGIYFRAGALRLPGRFL | – | – | – | – | 3 | 0 | 0 | improved activity |
